The values that follow come from patent US20210186010A1, “SURFACES […] QUORUM SENSING MODULATORS” (priority 2015, published 2021).

As usually defined, the EC50 is the concentration that produces a half-maximal response.

Assay [1] addresses AgrC-I receptor (Staphylococcus aureus (agr-I)). Nature of the assay: cell-based or functional assay.
Assay [2] concerns Agr QS in the S. aureus reporter strain. Nature of the assay: Solution Assay: fluorescence reporter assay (agrP3-mkate2 normalized to sarAP1-gfpmut2), plate reader. In kind it is cell-based, Staphylococcus aureus. Particulars: activation of Agr QS, compound in solution; n=3 experiments. As to the method: Transcription from fluorescence reporter genes was measured in S. aureus strain MK242. Overnight cultures were diluted 1:200 into fresh TSB with 10 µg/ml tetracycline and 10 µg/ml erythromycin, re-grown, and 90 μl of these cultures were distributed into wells of 96 well plates (MatTek, Ashland, Mass.), followed by addition of 10 μl of AIP-I and/or TrAIP-II and/or derivatives. Subsequently, 50 μl of mineral oil was added (Sigma, St. Louis, Mo.) to prevent evaporation. Using a Synergy 2 plate reader (Biotek, Winooski, Vt.), GFPmut2 and mKate2 levels were measured at 484 nm/528 nm and 588 nm/633 nm, respectively. Measurements were conducted with 15 min intervals at 37° C. with shaking. This assay was called “Solution Assay”.
To make AIP-I amenable to surface attachment, AIP-I containing an alkyne at the N-terminus was synthesized (FIG. 7A and FIG. 8A). This compound was called “Alkyne-AIP-I” (FIG. 2A). Prior to attaching the Alkyne-AIP-I to the surface linkers, the click reaction was carried out between the Alkyne-AIP-I and a surface-free version of the PEG330-azide linker to test if the AIP-I derivatives retained their activation capability following the click reaction. […] This compound was called “PEG330-triazole-AIP-I” (FIG. 2A (iii), FIG. 7A and FIG. 8B).
It was investigated whether a QS antagonist, when immobilized on a surface, could interfere with Agr QS signal transduction. […]
For orientation: A reporter such as luciferase makes a cellular process visible.

Assay [3] shares this test system. As to the kind of experiment: Fluorescence imaging / single-cell analysis of S. aureus reporter strain incubated with compounds in solution. The note with it: 100 nM AIP-I, 3 h incubation. Format: cell-based, Staphylococcus aureus. From the text: FIG. 1 Includes FIG. 1A-FIG. 1C. FIG. 1A. illustrates the Agr QS responses of S. aureus to exogenously supplied agonists and antagonists. To follow the QS status of S. aureus cells growing on unmodified and chemically-modified surfaces, confocal microscopy and an S. aureus reporter strain that produced the fluorescent protein mKate2 in response to exogenous addition of AIP-I was used. The reporter strain was a ΔagrBDCA ΔRNAIII S. aureus mutant harboring a multicopy plasmid carrying agrCA driven by the native agrP2 promoter. […] The plasmid also harbored the Agr-activated agrP3 promoter fused to mkate2. Therefore, in response to exogenously provided AIP-I, the reporter strain fluoresced red. This QS response was repressed by the administration of TrAIP-II. A constitutively expressed sarAP1-gfpmut2 gene was introduced into the chromosome to enable normalization of QS responses^18. FIG. 1B. […]
FIG. 1B. Fluorescence images of the S. aureus reporter strain (pathways shown in panel FIG. 1A) after 3 h incubation with buffer or buffer containing 100 nM AIP-I agonist. […] Fluorescence images of the S. aureus reporter strain used in this study following 3 h incubation with TrAIP-II or with combinations of AIP-I and TrAIP-II. […]
FIG. 6. […] To identify the source of heterogeneity, the fluorescent protein distributions in individual cells was measured under different conditions. […]

Where “and” joins values, the source holds several entries; their conditions need not be identical. Identical values can stand only once.

In assay [1], TrAIP-II (peptide) displayed an IC50 of Agr QS inhibition when AIP-I is present at 100 nM (reporter solution assay) of 1500 nM and a decrease in QS inhibition when TrAIP-II is lowered from 2.5 µM to 250 nM, with 100 nM AIP-I of 9 fold.

In the case of Alkyne-AIP-I (peptide), in assay [1], the EC50 of Agr QS activation (agrP3-mkate2 reporter normalised to constitutive GFPmut2, solution assay, S. aureus reporter strain) stood at 190 nM.

Turning to “Surface-PEG10000-triazole-AIP-I (peptide)”, in assay [1], the activation of the Agr QS response at T=6 h against T=0 h (surface assay, microfluidic chambers) came out at 25 fold; the surface coverage density above which the QS response is saturated was greater than 16000 µm^-2; the surface coverage density below which no QS response is elicited was less than 210 µm^-2.

For the substance AIP-I, in assay [2], the concentration giving a half-maximal response (EC50) was 28 nM and 30 nM. Further, the “mKate2 production (QS-controlled reporter)” value in assay [3] was “mKate2 was produced only when AIP-I was supplied to the cells”.

For PEG330-triazole-AIP-I (peptide), in assay [1], the EC50 of Agr QS activation (agrP3-mkate2 reporter normalised to constitutive GFPmut2, solution assay, S. aureus reporter strain) is 1100 nM.

The substance PEG330-triazole-TrAIP-II (peptide) gave an IC50 of Agr QS inhibition when AIP-I is present at 100 nM (reporter solution assay) in assay [1] of 3100 nM.

Consider AIP-I (peptide), for which, in assay [1], the EC50 of Agr QS activation (agrP3-mkate2 reporter normalised to constitutive GFPmut2, solution assay, S. aureus reporter strain) is 28 nM.

Take Alkyne-TrAIP-II (peptide): the IC50 of Agr QS inhibition when AIP-I is present at 100 nM (reporter solution assay) in assay [1] stood at 210 nM.
